Series [1] has as its target T1, EGFR, human recombinant, hIgG1-Fc tag (Sino Biological) (Homo sapiens, UniProt P00533 25-645). As to the kind of experiment: thermofluorimetric analysis.
Series [2] concerns the target T1, EGFR, human recombinant, hIgG1-Fc tag …. Nature of the series: thermofluorimetric analysis. The source holds these as a separate data set. (In general: Differential scanning fluorimetry follows unfolding on heating by fluorescence.)
For series [3] the target is unchanged. As to the kind of experiment: thermofluorimetric analysis. This is another data set of the same source.
Series [4] shares this target. Nature of the series: flow cytometry, EGFR-coated microspheres. A general note: A flow cytometer gives signals particle by particle.

Read-outs that look alike come from different tables or passages of the source.

B1: NS-DNA (ssDNA)
DNA: CGACATCTTTAACCTAGCCCTTGTCAGTGCTCTATGACAAGGTGTGTAGACGACATCTAACCTAGC
With B1, the binding result in series [1] is “no binding”.

B2: LINN2 (ssDNA)
DNA: CCGCTTTATTGTTAATTAAGTTTTATATTTCGCACAACACACAACAATCAATATC
For B2, the binding result in series [2] was “binds”.

B3: KM4 (ssDNA)
DNA: CTTACCTCTTTCTCCCACCGCCCCAAACATAATTGGTATACCGCAACACAACGCACAACACACAACAATCAAT
The term Kd denotes the constant that tells how readily two partners part at equilibrium. In the case of B3, the Kd in series [3] is around 1 nM.

B4: KM4-FITC (ssDNA)
DNA: CTTACCTCTTTCTCCCACCGCCCCAAACATAATTGGTATACCGCAACACAACGCACAACACACAACAATCAAT
modifications: 5' AmMC6
For the molecule B4, the Kd in series [4] is 46 nM.

These data come from article PMC6466456.
